Data reported in PMC10278182, “Evaluation of Nanopore Sensor Design Using Electrical and Optical Analyses” (ACS Nano, 2023).

Experiments:
Test in all cases: BLI; ND-BLI: biotinylated nanodiscs (15 nM) with reconstituted nanopores loaded on streptavidin (SAX) sensors; WDR5 in solution, 1 to 18 μM; 300 mM KCl, 20 mM Tris-HCl, 1 mg/mL BSA, 1 mM TCEP, pH 7.5; 24 °C; empty nanodiscs as reference
Details in all cases: both partners purified
[1] = target: T1, WD40 repeat protein 5 truncation mutant lacking residues 1-22 (WDR5ΔN) (UniProt P61964 23-334)
[2] = target: T1, WD40 repeat protein 5 truncation mutant …; remark: listed apart in the source
[3] = target: T1, WD40 repeat protein 5 truncation mutant …; remark: listed apart in the source

Binder | koff [1] [s⁻¹] | kon [1] [M⁻¹ s⁻¹] | Kd [2] [nM] | koff [3] [s⁻¹] | kon [3] [M⁻¹ s⁻¹]
MGDRGPEFELGTMLNPHGAARAEVYLRGGSGGS (other) [O(GGS)2 nanopore sensor (adaptor O - MLL4Win - (GGS)2 tether - tFhuA)] | 0.0046 | 19000 | 250 ± 50 | – | –
MLNPHGAARAEVYLRGGSGGS (other) [(GGS)2 nanopore sensor without the peptide adaptor (MLL4Win - (GGS)2 tether - tFhuA)] | 0.0049 | 19000 | 260 ± 30 | – | –
MGDRGPEFELGTMLNPHGAARAEVYLRPAPAPA (other) [O(PA)3 nanopore sensor (adaptor O - MLL4Win - (PA)3 tether - tFhuA)] | – | – | 3010 ± 940 | 0.018 | 6000
